Assay results as given in patent US20210369812A1, “OSTEOINDUCTIVE PEPTIDES, COMPOSITIONS, IMPLANTS, AND METHODS OF USE” (The Board of Regents of the University of Oklahoma, priority 2018, published 2021).
Entries after “also recorded” stand apart in the source; their conditions may differ.

How the values were obtained:
BMPR2 [1] = target: T1, BMPR2 (Homo sapiens, UniProt Q13873); assay: Biopanning of Ph.D.-12 phage library on immobilized BMPR2-Fc; assay type: binding; conditions: peptide displayed on p3 of M13 phage; 3 rounds of panning
T1 construct: purchased G&P Biosciences
T1 sequence (Q13873 27-150 limits assumed): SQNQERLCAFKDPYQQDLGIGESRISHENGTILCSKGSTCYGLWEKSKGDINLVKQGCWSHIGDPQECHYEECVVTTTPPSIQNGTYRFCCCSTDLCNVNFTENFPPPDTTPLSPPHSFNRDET
Description: (§1) The Ph.D.™-12 phage library was diluted in tris-buffered saline mixed with Tween-20 (TBS+0.1% v/v Tween-20 and abbreviated TBST) for a final concentration of 2×10^11 phage in 1 mL of TBST. The diluted library was then pipetted onto one of the wells of a 12-well poly-L-lysine plate followed by rocking the plate gently for 60 minutes at room temperature. […] This supernatant served as the starting phage library for subsequent binding selections. The phages which stuck to the plate were discarded.
(§2) This procedure is only applicable if the charge of the desired protein to be immobilized is negative, determined by checking the pI value of the protein. […]. This procedure was written for 12-well plates coated in poly-L-lysine (positively charged). Separate solutions of BMPR1A-Fc and BMPR2-Fc were prepared at 80 μg/ml in Tris-buffered saline (pH 7.5). In separate wells and on separate poly-L-lysine coated 12-well plates, 0.3 ml of each solution of receptor was added. The solutions of BMPR1A-Fc and BMPR2-Fc were swirled around the plate surface until the entire surface was wet. The plates were then incubated overnight at 4° C. with gentle agitation in a humidified container (a sealed plastic box with damp paper towels). Each individual receptor was now immobilized.
(§3) The following selection procedure is based off of the direct coating procedure outlined in the Ph.D.™-12 Phage Display Libraries instructional manual (New England Biolabs) with some alterations. This procedure was carried out after immobilizing the targets BMPR1A-Fc and BMPR2-Fc in a 12-well poly-L-lysine coated plate. A stock solution of tetracycline was prepared (20 mg/ml in 1:1 ethanol:water). The coating solution containing the target receptors was poured off followed by firmly slapping the plates face down on a clean paper towel. Each well was then filled with blocking buffer (0.1 M NaHCO3 (pH 8.6), 5 mg/mL BSA, 0.02% NaN3. Filter sterilize, store at 4° C.) and incubated for 1 hour at 4° C. The blocking solution was then poured off followed by firmly slapping the plates down against a clean paper towel. Each plate was washed rapidly 6 times with Tris-buffered saline mixed with Tween-20 (TBS+0.1% v/v Tween-20). The plate was slapped against a clean paper towel each time. 1 ml of the phage library created from the negative selection process was then pipetted onto each of the target coated wells. The plates were then rocked gently at room temperature for 60 min. The non-binding phages were then discarded by pouring off the supernatant and slapping the plate face-down on a clean paper towel. The plate was then washed 10 times with TBST followed by slapping the plate face-down on a clean paper towel each time (a clean section of paper towel was used each time to prevent cross-contamination). The bound phages were then eluted by incubating with a nonspecific disruption buffer (0.2 M Glycine-HCl (pH 2.2), 1 mg/ml bovine serum albumin (BSA) for 15 minutes. The eluate (immersed in the disruption buffer) was then pipetted into a microcentrifuge tube followed by neutralization with 150 μl of 1 M Tris-HCl (pH 9.1). A small portion (˜1 μl) of this eluate could be titered and sequenced if desired. The rest of the eluate was amplified (see amplification of phage library section). Once amplified, the eluate was also titered. Determine the concentration of amplified phages by counting the blue plaques in titering as described. Dilute the amplified library to contain 2×10^11 phages in 1 mL of TBS (as little as 10^9 plaque forming units per ml can be used if there is not enough). A second poly-L-lysine 12-well plate was then coated with the target receptors to allow for a second round of biopanning carried out using the same steps except that the Tween-20 concentration in the wash steps was raised to 0.5% (v/v). The eluate from the second round was then amplified, titered and used in an additional 3rd round of panning on newly receptor coated plates. […]

BMPR1A [2] = target: T2, BMPR1A (Homo sapiens, UniProt P36894); assay: Biopanning of Ph.D.-12 phage library on immobilized BMPR1A-Fc; assay type: binding; conditions: peptide displayed on p3 of M13 phage; 3 rounds of panning
T2 construct: purchased G&P Biosciences
Description: as §1, §2, §3

BMPR1A [3] = target: T2, BMPR1A; assay: Enzyme-linked immune sorbent assay for receptor binding (BMPR1A); conditions: peptide on p3 of M13 phage; absorbance 450 nm; n=4; vs wild type phage
Source text: (§4) Groups having the same lowercase letter assigned (above the bar) were not statistically different from each other. Groups having different letters assigned (above the bar) were statistically different from each other. […] The primary antibody was mouse anti-g3p (p8) IgG. The secondary antibody was anti-mouse IgG conjugated with horseradish peroxidase. The substrate, 3,3′,5,5′-Tetramethylbenzidine was detected at 450 nm after stopping the reaction with 1 M HCl.
Blocking buffer (0.1 M NaHCO3 (pH 8.6), 5 mg/ml BSA. Filter sterilized, stored at 4° C.) was prepared. TBS (50 mM Tris-HCl (pH 7.5), 150 mM NaCl, autoclaved, stored at room temperature) was prepared. Separate solutions of the target receptors were then made. For BMPR1A, a 10 μg/ml stock solution was made. For BMPR2, a 10 μg/ml solution was also made. Separate wells with n=4 for each different peptide bearing phage group were then coated with one of the receptors. The coating was done by adding 100 μl of the target solution to wells of a 96-well plate followed by swirling until the surface was completely wet. The plates were then allowed to incubate overnight at 4° C. with gentle agitation in a humidified container (a plastic box lined with damp paper towels). Any excess target solution was then removed, and the plate was slapped face-down on a clean paper towel. The wells of the plate were then blocked with 200 μl of blocking buffer for 1 hour at room temperature. […] The blocking buffer was then removed from each plate followed by 5 washes with 200 μl of TBST. Each time the plate was slapped against a clean section of paper towel face-down. […] After a brief pilot test, it should be noted that using 10^10 phage/ml was determined to work best, but other concentrations of virus also worked consistently. […] Then, […] of freshly prepared 3,3′,5,5′-Tetramethylbenzidine (TMB) was added to each well and the absorbance at 370 nm and 652 nm was monitored for 1 hour using an ELISA plate reader. […] The absorbance at 450 nm for each well was then measured.

BMPR2 [4] = target: T1, BMPR2; assay: Enzyme-linked immune sorbent assay for receptor binding (BMPR2); conditions: peptide on p3 of M13 phage; absorbance 450 nm; n=4; vs wild type phage
Source text: as §4
Blocking buffer (0.1 M NaHCO3 (pH 8.6), 5 mg/ml BSA. Filter sterilized, stored at 4° C.) was prepared. TBS (50 mM Tris-HCl (pH 7.5), 150 mM NaCl, autoclaved, stored at room temperature) was prepared. Separate solutions of the target receptors were then made. For BMPR1A, a 10 μg/ml stock solution was made. For BMPR2, a 10 μg/ml solution was also made. Separate wells with n=4 for each different peptide bearing phage group were then coated with one of the receptors. […] After a brief pilot test, it should be noted that using 10^10 phage/ml was determined to work best, but other concentrations of virus also worked consistently. […] Then, […] of freshly prepared 3,3′,5,5′-Tetramethylbenzidine (TMB) was added to each well and the absorbance at 370 nm and 652 nm was monitored for 1 hour using an ELISA plate reader. […] The absorbance at 450 nm for each well was then measured.

[5] = system: human mesenchymal stem cells (hMSCs); assay: Live cell binding through immunofluorescence; assay type: cell-based; conditions: 10^12 phages/ml
Description: Human mesenchymal stem cells (hMSCs) were grown to roughly 60% plate coverage in a 48-well tissue culture plate according to the company Lonza's culturing protocols. […] The hMSCs were then blocked with 0.5% BSA (dissolved in cell media) for 1 hour. The cell media for the hMSCs was then replaced with 1 ml of new cell media having of concentration of 10^12 phages/ml. Next, the plates were washed once with 400 μl of phosphate buffered saline (PBS) at a pH of 7.4. The hMSCs were then incubated with Anti-M13 Bacteriophage Coat Protein g8p antibody [RL-ph2] (ab9225) at a 1:1000 dilution in cell media (200 μl per well). The wells were then washed again with PBS (400 μl per wash). Next, the hMSCs were incubated with the secondary antibody, Goat-anti mouse AF-488 (Abcam) for 1 hour (1 ug/ml final concentration of antibody in media). The wells were then washed again with PBS (400 μl per wash). A Hoechst nuclear stain was used to stain the nuclei (PureBlu™ Hoechst 33342 Nuclear Staining Dye #1351304 from BioRad) according to the company's protocol. Cell Mask™ Orange Plasma Membrane Stain was used to stain membranes (CellMask™ Orange Plasma Membrane Stain Catalog number: C10045 from Thermo Fisher Scientific) according to the company's protocol. The phages binding to the cells were then imaged on a Nikon Eclipse Ti fluorescent microscope.

T2 sequence (P36894 24-152 limits assumed): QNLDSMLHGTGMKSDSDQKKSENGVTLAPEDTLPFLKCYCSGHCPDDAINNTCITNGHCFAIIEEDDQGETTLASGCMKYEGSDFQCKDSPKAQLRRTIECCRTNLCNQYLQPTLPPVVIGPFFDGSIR

Sequence	Binding to BMPR2 found by biopanning (frequency among sequenced plaques) (BMPR2 [1])	Binding to BMPR1A found by biopanning (frequency among sequenced plaques) (BMPR1A [2])	Relative binding strength in ELISA to BMPR1A (BMPR1A [3])	Relative binding strength in ELISA to BMPR2 (BMPR2 [4])	Binding of peptide-bearing phages to live hMSCs [5]
NAKYPTMRPGPK (Completely synthesized in the lab - Ph.D.-12 Phage Display Peptide Library Kit (New England Biolabs))	discovered to bind	discovered to bind			
TSKYLTMRPGPK (Completely synthesized in the lab - Ph.D.-12 Phage Display Peptide Library Kit (New England Biolabs))	discovered to bind	discovered to bind			
GNNPLHVHHDKR (Completely synthesized in the lab - Ph.D.-12 Phage Display Peptide Library Kit (New England Biolabs))	discovered to bind	discovered to bind			
TAKSLPMRPGPL (Completely synthesized in the lab - Ph.D.-12 Phage Display Peptide Library Kit (New England Biolabs))	discovered to bind	discovered to bind			
TAKYLPMRPGPL (Completely synthesized in the lab - Ph.D.-12 Phage Display Peptide Library Kit (New England Biolabs))	discovered to bind	most frequently obtained peptide; also recorded: discovered to bind	best binders		
RDYHPRDHTATW (Completely synthesized in the lab - Ph.D.-12 Phage Display Peptide Library Kit (New England Biolabs))	most frequent peptide; also recorded: discovered to bind	discovered to bind		statistically significant binders	bound to what appeared to be the same location as the outer membrane; also recorded: demonstrated an ability to bind to the outer membrane
DYHDPSLPTLRK (Completely synthesized in the lab - Ph.D.-12 Phage Display Peptide Library Kit (New England Biolabs))	discovered to bind	discovered to bind			
NAKYPTMRPGPL (Completely synthesized in the lab - Ph.D.-12 Phage Display Peptide Library Kit (New England Biolabs))	discovered to bind	discovered to bind			
